# In patent US10617749B1, “Composition of matter and methods for alteration of dendritic cell metabolism to augment cancer vaccine efficacy” (Duke University, priority 2016, dated 2020):
# Entries after “also recorded” stand apart in the source; their conditions may differ.
# Columns and labels:
# [1] = tested on: DC-induced CD4+ FoxP3+ Tregs; assay: In vitro Treg assay; format: cell-based, mouse; conditions: for DC-mediated Treg differentiation in vitro: pre-treated DCs co-cultured with naïve CD4+ T cells
# Procedure: In vivo Treg assay. DCs (C57, H-2^b) were pre-treated for 48 hours and delivered by intradermal injection into the footpad of Foxp3-mRFP mice. Draining inguinal and popliteal lymph nodes were resected 5 days later and analyzed for CD4^+ Foxp3^+ Tregs. In vitro Treg assay, DCs (Balb/c, H-2^d) were pre-treated for either 24 or 48 hrs, and re-plated at a 1:3 DC:T-cell ratio with purified naïve Foxp3-mRFP(H-2^b) CD4^+ Tcells. These co-cultures were incubated for 6 days and quantitated for CD4^+ FoxP3^+ Tregs by flow cytometry.
# (§1) Murine bone marrow-derived DCs (BMDCs) were harvested and differentiated as previously described and purified using CD11c microbeads (Miltenyi Biotec) according to manufacturer's protocol. DC purity was monitored by flow cytometry and consistently found to be >95% CD11c+F4/80-. BRAFV600EPTEN−/−-Wnt5aKD and BRAFV600EPTEN−/−-NTC cell lines were generated and cultured as previously described. DC2.4, a murine dendritic cell line was kindly provided by Dr. Kenneth L. Rock (University of Massachusetts Medical School), and cultured as previously described. DC2.4β-cateninKD, DC2.4-CPT1AKD, and DC2.4-NTC stable cell lines were generated using a β-catenin-targeted, CPT1A-targeted, or control shRNA-expressing lentivirus followed by puromycin selection. DCs were treated with Wnt3a (100 ng/mL), Wnt5a (200 ng/mL), LPS (1 μg/mL), 1-MT, 2DG (1 mM), or ETO (100 µM) vs vehicle control either for 24 or 48 hrs prior to their use in both in vitro and in vivo experiments.
# [2] = tested on: bone marrow-derived DCs (BMDCs); assay: DC glycolysis, extracellular acidification rate (ECAR); format: cell-based, murine; conditions: with or without LPS
# Procedure: (§2) DC energy metabolism was measured using the XF^e24 extracellular flux analyzer (Seahorse Bioscience), with the glycolysis stress test kit and the mitochondrial stress test kit as previously described (Everts et al., 2014; Zhao and Klimecki, 2015).
# as §1
# [3] = tested on: bone marrow-derived DCs (BMDCs); assay: DC oxygen consumption rate (OCR) / OXPHOS, extracellular flux analysis; format: cell-based, murine; conditions: BMDCs treated with the agent alone vs untreated
# Procedure: as §2, §1
# DC intracellular PpIX = assay: PpIX flow cytometry analysis; format: cell-based, mouse; conditions: 48 hours treatment, then 1 mM δ-ALA 4 hrs
# Procedure: Dendritic cells were terminally incubated in the presence of 1 mM δ-aminolevulinic acid (ALA) for 4 hrs. Intracellular PpIX was analyzed by flow cytometry as previously described (Hryhorenko et al., 1998).
# murine DCs = assay: qrt-PCR / ELISA gene and cytokine expression in murine DCs; format: cell-based; conditions: for PPAR-γ and CPT1A expression: murine primary DCs; for expression of key glycolytic enzymes (phosphofructokinase, hexokinase, pyruvate kinase): primary DCs
# Procedure: Total RNA was isolated by RNeasy Plus Mini Kit(Qiagen). RNA(500 ng) was used in cDNA Synthesis (iScript, BioRad). Quantification of mRNA for genes involved in PPARγ signaling was performed using Mouse PrimePCR PPAR Array according to the manufacturer's protocol (BioRad). Real-time PCR was performed using an ABI7500 Real-Time PCR system (Life Technologies). Data analysis utilized the PrimePCR Analysis Software (BioRad). Conventional qPCR was performed using validated primers (Table 1) and SsoAdvanced Universal SYBR Green Super mix (BioRad) or Taqman probes (Applied Biosystems) for heme synthesis enzymes.
# Murine IL-6 (eBioscience) and IL-12p40 (Becton Dickinson) ELISAs were performed according to manufacture's protocol.
# [4] = tested on: human monocyte-derived DCs; assay: OCR analysis of human monocyte-derived DCs; format: cell-based; conditions: human monocyte-derived DCs, Wnt5a 48 hours
# Procedure: Human DCs were differentiated from harvested peripheral blood mononuclear cells and pre-treated with Wnt5a 48 hours prior to OCR analysis. Short-term incubation with ETO was performed prior to analysis.
# as §2
# (§3) Human Monocyte-derived Dendritic Cells were generated as previously described.
# [5] = tested on: bone marrow-derived DCs (BMDCs); assay: Extracellular lactate assay; format: cell-based, murine; conditions: BMDC culture media 0-48 hours
# Procedure: L-Lactate levels were measured by lactate dehydrogenase conversion of L-lactate+NAD^+ to pyruvate+NADH following treatment with […] (Pesce et al., 1975). Lactate standards and samples were read at NADH specific absorbance 340 nm.
# OT-1 CD8+ T cells = assay: T cell proliferation assay; format: cell-based, mouse; conditions: SIINFEKL-loaded BMDCs co-incubated with OT-1 splenocytes
# Procedure: Splenocytes of OT-1 mice (H-2^b) were isolated and stained with CellTrace Violet (ThermoFisher). Preconditioned DCs were loaded with ovalbumin peptide SIINFEKL, and co-cultured at a DC:splenocyte ratio of 40,000:120,000 cells for 72 hrs. CD8+ T cell proliferation was measured by the dilution of Cell Trace Violet dye by flow cytometry.
# DC IDO = assay: IDO enzymatic assay (kynurenine HPLC); format: cell-based, mouse; conditions: purified DC cultures, Wnt5a or Wnt5a+ETO
# Procedure: DC IDO enzyme activity was measured by the conversion of L-tryptophan to L-kynurenine in conditioned media by HPLC (Pallotta et al., 2011). Intracellular hemin levels were measured using a colorimetric assay kit (BioVision).
# [6] = tested on: human monocyte-derived DC; assay: PPARγ and CPT1A Western blot in human monocyte-derived DCs; format: cell-based
# Source text: (§4) Primary antibodies including CPT1A (Cell signaling), PPAR-γ (Santa Cruz Biotechnology), β-catenin, β-actin (Millipore), p-AMPK(T172)/AMPK (Cell signaling), p-AKT(T308)/Akt (Cell Signaling) were used at 1:1000. Secondary antibodies including goat anti-rabbit IgG-HRP (Millipore) and goat anti-mouse IgG-HRP (Millipore) were used at 1:5000. Cells were lysed in Laemmli sample buffer after treatment and subjected to SDS-polyacrylamide gel electrophoresis and immunoblot analysis. For immunoprecipitation, cells were lysed in radio immunoprecipitation assay (RIPA) buffer [10 mM sodium phosphate (pH 8.0), 150 mM NaCl, 1% Triton X-100, 1% sodium deoxycholate, and 0.1% SDS in the presence of 1 mM DTT, 1 mM phenylmethylsulfonylfluoride, and a protease inhibitor cocktail (Sigma)], precleared with protein A beads, and then incubated with 1 μg of antibody against β-catenin or isotype control IgG with protein A-agarose beads on a rotator overnight at 4° C. After 3 washes with RIPA buffer, immunoprecipitated complexes were eluted in sample buffer by boiling and subjected to immunoblot analysis. Immunoblots were visualized by chemiluminescence substrate (ThermoFisher) and imaged by a ChemiDoc XRSplus system (BioRad).
# as §3
# BMDCs = assay: Immunoblot of p-AMPK(T172) and p-AKT(T308) in BMDCs; format: cell-based, murine; conditions: Wnt5a 200 ng/mL
# Source text: All data representative of 3 independent experiments.
# as §4
# β-catenin-PPAR-γ complex = assay: β-catenin co-immunoprecipitation in primary DCs; format: cell-based, murine
# Source text: as §4
# Dendritic Cells = assay: BODIPY and fatty acid uptake assay; format: cell-based, murine; conditions: TF2-C12 uptake, BODIPY
# Procedure: Dendritic Cells were stained in 0.5 μg/ml BODIPY 493/503 in PBS for 15 min to determine neutral lipid content (Herber et al., 2010). Fatty acid uptake measurement in DCs were performed using a dodecanoic acid fluorescent TF2-C12 fatty acid (Sigma) according to the manufacturer's protocol.
# DCs = assay: DC ATP generation; format: cell-based; conditions: data not shown
molecule,measurement,setting,value
Cn1cc(CC(N)C(=O)O)c2ccccc21 (stereo not drawn) [1-MT],DC-dependent Treg differentiation promoted by melanoma-derived conditioned media,[1]; DCs with BRAFV600E-PTEN−/− conditioned media,only modestly suppressed
"O=CC[C@@H](O)[C@H](O)[C@H](O)CO [2-DG, 2-deoxyglucose]",DC-mediated Treg differentiation in vitro,[1],enhancement of DC-dependent Treg expansion; also recorded: enhanced Treg differentiation
Oc1nc(-c2ccc(C(F)(F)F)cc2)nc2c1CSCC2 [XAV939],DC glycolysis (ECAR),[2],promote DC glycolysis
CC[C@H]1/C=C/C=C/C[C@@H](C)[C@H](O)[C@@](C)(O)C(=O)[C@@H](C)[C@H](O)[C@@H](C)C(=O)[C@@H](C)[C@H](O)[C@@H](C)/C=C/C(=O)O[C@@H]2[C@H](C)[C@H](CC1)O[C@]1(CC[C@H](C)[C@H](C[C@@H](C)O)O1)[C@H]2C [oligomycin],DC-mediated Treg differentiation in vitro,[1],potently suppressed Wnt5a induction of DC-mediated Treg differentiation; also recorded: almost complete elimination of these Treg populations
NC(=O)c1ncn([C@@H]2O[C@H](CO)[C@@H](O)[C@H]2O)c1N [AICAR],DC OXPHOS (OCR),[3],suppresses OXPHOS
"Wnt3a: canonical Wnt ligand used to treat DCs (100 ng/mL) (protein, UniProt P56704 19-352, looked up) Protein Wnt-3a: SYPIWWSLAVGPQYSSLGSQPILCASIPGLVPKQLRFCRNYVEIMPSVAEGIKIGIQECQHQFRGRRWNCTTVHDSLAIFGPVLDKATRESAFVHAIASAGVAFAVTRSCAEGTAAICGCSSRHQGSPGKGWKWGGCSEDIEFGGMVSREFADARENRPDARSAMNRHNNEAGRQAIASHMHLKCKCHGLSGSCEVKTCWWSQPDFRAIGDFLKDKYDSASEMVVEKHRESRGWVETLRPRYTYFKVPTERDLVYYEASPNFCEPNPETGSFGTRDRTCNVSSHGIDGCDLLCCGRGHNARAERRREKCRCVFHWCCYVSCQECTRVYDVHTCK",DC OXPHOS (OCR),[3],no changes in either DC OXPHOS or glycosis
same,DC glycolysis (ECAR),[2],no changes in either DC OXPHOS or glycosis
same,DC levels of PpIX,DC intracellular PpIX,failed to enhance PpIX synthesis in DCs
same,PPAR-γ and CPT1A expression,murine DCs,failed to induce the expression of both PPAR-γ and CPT1A in DCs
same,"expression of key glycolytic enzymes (phosphofructokinase, hexokinase, pyruvate kinase)",murine DCs; qrt-PCR,promotes the expression of key glycolytic enzymes
"Wnt5a: Wnt ligand used to treat DCs (200 ng/mL) (protein, UniProt P41221 62-380, looked up) Protein Wnt-5a: IIGAQPLCSQLAGLSQGQKKLCHLYQDHMQYIGEGAKTGIKECQYQFRHRRWNCSTVDNTSVFGRVMQIGSRETAFTYAVSAAGVVNAMSRACREGELSTCGCSRAARPKDLPRDWLWGGCGDNIDYGYRFAKEFVDARERERIHAKGSYESARILMNLHNNEAGRRTVYNLADVACKCHGVSGSCSLKTCWLQLADFRKVGDALKEKYDSAAAMRLNSRGKLVQVNSRFNSPTTQDLVYIDPSPDYCVRNESTGSLGTQGRLCNKTSEGMDGCELMCCGRGYDQFKTVQTERCHCKFHWCCYVKCKKCTEIVDQFVCK",DC OXPHOS (OCR),[3],strongly promoting DC OXPHOS; also recorded: promotes DC oxidative phosphorylation (OXPHOS)
same,OCR,[4],induces OCR in human monocyte-derived DCs
same,DC glycolysis (ECAR),[2],inhibits DC glycolysis; also recorded: inhibit LPS-mediated DC glycolysis; also recorded: eliminates the glycolytic reserve of DCs while also significantly suppressing the lipopolysaccharide (LPS)-induced glycolytic surge; also recorded: suppresses LPS-induced DC glycolysis
same,lactate production,[5],suppress lactate production
same,DC-mediated antigen-specific CD8+ T cell proliferation,OT-1 CD8+ T cells,suppresses LPS-induced DC-mediated antigen-specific T cell proliferation
same,DC IDO enzymatic activity (kynurenine),DC IDO,capable of promoting DC IDO enzymatic activity
same,DC levels of PpIX,DC intracellular PpIX,enhances DC levels of the PpIX prosthetic group in a manner that depends on the induction of FAO
same,IL-6 and IL-12 expression in primary DCs,"murine DCs; BMDCs, qrt-PCR",suppresses IL-6 and IL-12 expression in primary DCs
same,expression of ALAS1 and further PpIX/heme synthesis enzymes,"murine DCs; DCs, qrt-PCR",upregulate the expression of ALAS1 as well as several additional enzymes involved in PpIX synthesis
same,PPAR-γ and CPT1A expression,murine DCs,directly induce CPT1a expression in a PPARγ-dependent manner; also recorded: induces the upregulation of PPAR-γ and CPT1A
same,"expression of key glycolytic enzymes (phosphofructokinase, hexokinase, pyruvate kinase)",murine DCs; qrt-PCR,suppresses the expression of key glycolytic enzymes; also recorded: suppress the expression of the key glycolytic enzymes
same,PPAR-γ and CPT1A expression,[6],induces the upregulation of PPAR-γ and CPT1A
same,AMPK activation (Thr-172 phospho-AMPK),BMDCs; 24 and 48 hrs,suppress AMPK activation
same,DC Akt Thr-308 phosphorylation,BMDCs; 48 hrs,no significant impact
same,PPAR-γ binding to β-catenin,β-catenin-PPAR-γ complex,PPAR-γ to bind to β-catenin upon Wnt5a stimulation
same,DC fatty acid uptake and lipid stores,Dendritic Cells,enhance DC fatty acid uptake and lipid stores
same,DC ATP generation,DCs,no net effect on DC ATP generation
